Measured values taken from US20050112698A1 (Bayer, published 2005).

B1: Fab A2-G8 (Fab, V domains shown)
VH: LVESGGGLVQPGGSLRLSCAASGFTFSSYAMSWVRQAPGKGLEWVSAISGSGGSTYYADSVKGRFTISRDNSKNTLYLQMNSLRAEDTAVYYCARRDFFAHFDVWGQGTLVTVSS
VL: QMTQSPSSLSASVGDRVTITCRASQGIRGYLGWYQQKPGKAPKLLIYSASSLQSGVPSRFSGSGSGTDFTLTISSLQPEDFATYYCQQYSGMPYTFGQGTKVEIKR
notes: Fab format; also called anti-SCF Fab A2-G8; parent Fab A2-G8
B2: A2-G8 IgG (antibody, V domains shown)
VH: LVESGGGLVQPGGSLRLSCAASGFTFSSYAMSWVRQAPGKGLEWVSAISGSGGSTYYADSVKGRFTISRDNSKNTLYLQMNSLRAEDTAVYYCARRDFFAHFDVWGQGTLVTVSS
VL: B1 VL
notes: Human IgG1 kappa expressed in HKB11 cells; also called A2-G8 Mab; SCF antibody A2-G8

Assays:
Cynomolgus Monkey SCF [1] = target: T1, Cynomolgus Monkey SCF (cynomolgus monkey, UniProt A0A7N9CAX5 26-189); assay: cell-based or functional assay
human Stem Cell Factor [2] = target: T2, human Stem Cell Factor (human, UniProt P21583 26-189); assay: cell-based or functional assay
T2 sequence (P21583 other isoform, or with tags, fused parts or gaps limits assumed): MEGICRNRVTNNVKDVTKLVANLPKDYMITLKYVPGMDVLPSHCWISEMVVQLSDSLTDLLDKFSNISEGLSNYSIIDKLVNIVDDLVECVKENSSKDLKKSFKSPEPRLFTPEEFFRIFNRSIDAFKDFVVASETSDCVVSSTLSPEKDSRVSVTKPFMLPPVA

human Stem Cell Factor [3] = target: T2, human Stem Cell Factor; assay: cell-based or functional assay; remark: listed apart in the source
Cynomolgus Monkey SCF [4] = target: T1, Cynomolgus Monkey SCF; assay: SPR BIAcore, initial screening (high RU of immobilized antigen, low flow rate)
Description: Analysis of Fab binding to cSCF was performed by surface plasmon resonance using a BIAcore 2000 (Biacore, Piscataway, N.J.), according to the manufacturer's instructions and a CM5 chip (Biacore) coated with cSCF. For amine coupling, a research grade CM5 chip was activated using the standard NHS/EDC procedure. Cynomologus monkey SCF was diluted to 20 μg/ml in 10 mM NaAcetate, pH 5.0, and a total of 5000 RU's were coupled to channel 2 of the sensor surface. The remaining active sites were quenched by the addition of 1M ethanolamine, pH 8.0. Channel 1 was subjected to the coupling procedure in the absence of protein and was used as a reference surface. […] The koff was calculated from a single concentration of Fab using BIAevaluation software (Biacore).
The koffrates determined using kinetic conditions (low RU's of immobilized antigen and high flow rates) on the BIAcore gave higher values than those koff's determined under non-kinetic conditions used during the initial screening procedure (high RU's of immobilized antigen and low flow rates). This is especially apparent for the A2-G8 Fab, where a koff of 6×10⁻³ sec⁻¹ was measured during the initial screening process, compared to a koff value of 1×10⁻² sec⁻¹ measured using kinetic parameters. […] The koff rates determined in the initial screening process, therefore, should not be considered absolute values but a ranking with other Fabs.

human Stem Cell Factor [5] = target: T2, human Stem Cell Factor; assay: BIAcore, Affinity Estimation, Fab
Cynomolgus Monkey SCF [6] = target: T1, Cynomolgus Monkey SCF; assay: SPR BIAcore 2000, Fab over 185 RU immobilized cSCF
Description: (§1) Affinity measurements were carried out on a BIAcore 2000 (Biacore) at 25° C. […] Purified Fab's were diluted in HBS-EP running buffer at concentrations ranging from 1.95 to 125 nM. A volume of 100 μl was injected using a flow rate of 50 μl/min in Kinject mode. After a 10 min dissociation, 50 μl of 10 mM Glycine, pH 2.5 and 25 μl of 10 mM Glycine, pH 2.0 was injected using a flow rate of 100 μl/min. All samples were run in duplicate. […] Cynomologus monkey SCF was diluted in HBS-EP running buffer at concentrations ranging from 15.6 to 500 nM and 150 μl injected at a flow rate of 50 μl/min. After a 15 min dissociation, 50 μl of 10 mM Glycine, pH 2.5, and 25 μl of 10 mM Glycine, pH 1.5 was injected using a flow rate of 100 μl/min. All samples were run in duplicate. The data was globally fit to the 1 to 1 binding model using BIAevaluation software. The raw experimental data were corrected for instrumental and bulk solvent artifacts by double referencing using both activated and blocked surfaces as controls.
(§2) To evaluate the binding properties of anti-SCF Fabs selected from affinity optimization of the CDR3 loop with SCF, the real time interaction was measured using surface plasmon resonance with the BIAcore 2000. […] The improvement in Kd's are primarily governed by a substantial reduction in the off-rate (koff). […] The affinity constants for Fab binding to human SCF were slightly lower than those Kd's for cynomologus monkey SCF. The panning design, with lower antigen concentrations and extensive washing steps, favors off-rate selection. The affinity of the A2-G8 clone in an IgG vector was measured using the IgG immobilized to the surface of the CM5 chip.

Cynomolgus Monkey SCF [7] = target: T1, Cynomolgus Monkey SCF; assay: competition ELISA: cSCF binding to coated human SCFR, Fab 3.1 µg/ml
Description: The extracts containing Fab were also tested for the ability to inhibit SCF binding to the SCF receptor. ELISA plates were coated overnight with 2 μg/ml human SCFR (R&D Systems, Minneapolis, Minn.) in PBS at 4° C. After washing with TBS-T, the plate was blocked with 5 mg/ml BSA in PBS. The extract was diluted 1/5 in PBS buffer containing 12.5 ng/ml cSCF and 1 mg/ml BSA. After a 1 hr incubation at room temperature, 100 μl was added to the blocked ELISA plate and incubated an additional hour. The plate was washed 5 times with TBS-T, and 100 μl of a 0.4 μg/ml solution of anti-SCF (R&D Systems) in 1 mg/ml BSA in PBS was added. After 1 hour the plate was washed and incubated with anti-Mouse-HRP (Sigma, St. Louis, Mo.). The plate was developed with BM Blue POD substrate (Roche Diagnostics, Chicago, Ill.) and read at 370 nm.
(§3) TABLE 12 Sequences of the CDR3 Vk1 Region of Selected Antibody Clones with Comparison of koff and SCF Inhibitory Activity The off-rates were determined using a high density surface CM5 chip (5000 RU of immobilized cSCF) on BIAcore and are shown with comparison to the original A2-G8 clone. […] The IC₅₀ in the TF-1 proliferation assay was based on an average of two assays with the exception of the A2-G8-IgG (n = 5).

Cynomolgus Monkey SCF [8] = target: T1, Cynomolgus Monkey SCF; assay: SPR BIAcore, 5000 RU immobilized cSCF, off-rate ranking; high density chip (5000 RU cSCF), off-rate ranking
Description: as §3
Analysis of Fab binding to cSCF was performed by surface plasmon resonance using a BIAcore 2000 (Biacore, Piscataway, N.J.), according to the manufacturer's instructions and a CM5 chip (Biacore) coated with cSCF. For amine coupling, a research grade CM5 chip was activated using the standard NHS/EDC procedure. Cynomologus monkey SCF was diluted to 20 μg/ml in 10 mM NaAcetate, pH 5.0, and a total of 5000 RU's were coupled to channel 2 of the sensor surface. The remaining active sites were quenched by the addition of 1M ethanolamine, pH 8.0. Channel 1 was subjected to the coupling procedure in the absence of protein and was used as a reference surface. Extracts were diluted 1/5 in HBS-EP running buffer and injected for 2 min using a flow rate of 20 μl/min. The surface was regenerated by two consecutive injections of 25 μl, 10 mM glycine, pH 2.5, using a flow rate of 100 μl/min. The koff was calculated from a single concentration of Fab using BIAevaluation software (Biacore).

human Stem Cell Factor [9] = target: T2, human Stem Cell Factor; assay: cell-based or functional assay; remark: listed apart in the source
Cynomolgus Monkey SCF [10] = target: T1, Cynomolgus Monkey SCF; assay: SPR BIAcore, off-rate (legend: 5000 RU immobilized cSCF); Table 12 off-rate list (legend: immobilized cSCF)
Cynomolgus Monkey SCF [11] = target: T1, Cynomolgus Monkey SCF; assay: SPR BIAcore 2000, cSCF over 550 RU immobilized IgG
Description: as §1, §2

| Binder | IC50 TF-1 cynoSCF Assay (Cynomolgus Monkey SCF [1]) | IC50 TF-1 huSCF Assay (human Stem Cell Factor [2]) | TF-1 Fab assay IC50 (human Stem Cell Factor [3]) | koff (Cynomolgus Monkey SCF [4]) | Kd (human Stem Cell Factor [5]) | Kd (Cynomolgus Monkey SCF [6]) | koff (Cynomolgus Monkey SCF [6]) | kon (Cynomolgus Monkey SCF [6]) | % Inhibition SCF Binding ELISA Assay (Cynomolgus Monkey SCF [7]) | koff (Cynomolgus Monkey SCF [8]) | Eosinophil IgG assay IC50 (human eosinophil survival) (human Stem Cell Factor [3]) | TF-1 IgG assay IC50 (human Stem Cell Factor [3]) | IC50, Cyno Eos (SCF-stimulated cyno eosinophil survival) (human Stem Cell Factor [9]) | IC50, Human Eos (SCF-stimulated human eosinophil survival) (human Stem Cell Factor [9]) | IC50, TF-1 (SCF-induced TF-1 proliferation) (human Stem Cell Factor [9]) | koff (Cynomolgus Monkey SCF [10]) | Kd (Cynomolgus Monkey SCF [11]) | koff (Cynomolgus Monkey SCF [11]) | kon (Cynomolgus Monkey SCF [11]) |
| --- | --- | --- | --- | --- | --- | --- | --- | --- | --- | --- | --- | --- | --- | --- | --- | --- | --- | --- | --- |
| B1 | 5.7 µg/mL | 2.36 µg/mL | 5 µg/mL | 0.006 s⁻¹ | 9 nM | 25.1 nM | 0.0106 s⁻¹ | 420000 M⁻¹ s⁻¹ | 30% | 0.00306 s⁻¹ | – | – | – | – | – | – | – | – | – |
| B2 | 11.2 µg/mL | 2.32 µg/mL | – | – | – | – | – | – | – | – | 1.5 µg/mL | 1 µg/mL | 3 µg/mL | 1.5 µg/mL | 1 µg/mL | 0.0013 s⁻¹ | 35.8 nM | 0.0013 s⁻¹ | 36300 M⁻¹ s⁻¹ |
